Test results reported in PMC7104937.

Target: soluble ectodomain protein of human CD26 (hCD26) (human), P27487
Experiment: crystal structure
Settings: remark: other sources report otherwise

B1: soluble ectodomain protein of human CD26 (hCD26), P27487 29-766 (receptor)
chain: NKGTDDATADSRKTYTLTDYLKNTYRLKLYSLRWISDHEYLYKQENNILVFNAEYGNSSVFLENSTFDEFGHSINDYSISPDGQFILLEYNYVKQWRHSYTASYDIYDLNKRQLITEERIPNNTQWVTWSPVGHKLAYVWNNDIYVKIEPNLPSYRITWTGKEDIIYNGITDWVYEEEVFSAYSALWWSPNGTFLAYAQFNDTEVPLIEYSFYSDESLQYPKTVRVPYPKAGAVNPTVKFFVVNTDSLSSVTNATSIQITAPASMLIGDHYLCDVTWATQERISLQWLRRIQNYSVMDICDYDESSGRWNCLVARQHIEMSTTGWVGRFRPSEPHFTLDGNSFYKIISNEEGYRHICYFQIDKKDCTFITKGTWEVIGIEALTSDYLYYISNEYKGMPGGRNLYKIQLSDYTKVTCLSCELNPERCQYYSVSFSKEAKYYQLRCSGPGLPLYTLHSSVNDKGLRVLEDNSALDKMLQNVQMPSKKLDFIILNETKFWYQMILPPHFDKSKKYPLLLDVYAGPCSQKADTVFRLNWATYLASTENIIVASFDGRGSGYQGDKIMHAINRRLGTFEVEDQIEAARQFSKMGFVDNKRIAIWGWSYGGYVTSMVLGSGSGVFKCGIAVAPVSRWEYYDSVYTERYMGLPTPEDNLDHYRNSTVMSRAENFKQVEYLLIHGTADDNVHFQQSAQISKALVDVGVDFQAMWYTDEDHGIASSTAHQHIYTHMSHFIKQCFSLP
For B1, the stoichiometry N was 2.
